Series [1] addresses T1, Hfp N-terminal RRMs (half pint, PUF60 homolog) (UniProt Q8T6B9 110-326).
T1 sequence: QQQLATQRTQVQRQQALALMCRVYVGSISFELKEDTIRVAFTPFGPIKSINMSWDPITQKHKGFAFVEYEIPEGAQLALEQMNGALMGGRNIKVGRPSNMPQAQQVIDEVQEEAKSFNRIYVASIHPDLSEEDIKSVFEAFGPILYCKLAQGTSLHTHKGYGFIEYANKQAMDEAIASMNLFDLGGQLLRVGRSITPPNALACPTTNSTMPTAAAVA
Nature of the series: EMSA. (In general: A gel shift assay detects complexes by their altered migration in electrophoresis.)

Series [2] deals with the molecule itself. Description: SDS-PAGE and Western blot. For orientation: In western blotting, separated proteins are transferred to a membrane and probed.

Consider 4 molecules from paper doi:10.1101/2020.06.30.179986 (bioRxiv, 2020).

B1: act57B PT (ssRNA)
RNA: UCUUCCCCUC
For B1, the binding result in series [1] was “binds”.

B2: Positive control (Drosophila consensus polypyrimidine-rich sequence) (ssRNA)
RNA: UUUUUCUCUU
For the molecule B2, in series [1], the binding result is recorded as “binds”.

B3: Negative control scramble (ssRNA)
RNA: UACGUACGUA
With B3, in series [1], the binding result is given as “no binding”.

B4: recombinant protein composed of the two N-terminal RNA Recognition Motifs (RRM) of Half pint (Hfp) (domain or fragment, Drosophila, UniProt Q8T6B9 110-326, looked up)
chain: QQQLATQRTQVQRQQALALMCRVYVGSISFELKEDTIRVAFTPFGPIKSINMSWDPITQKHKGFAFVEYEIPEGAQLALEQMNGALMGGRNIKVGRPSNMPQAQQVIDEVQEEAKSFNRIYVASIHPDLSEEDIKSVFEAFGPILYCKLAQGTSLHTHKGYGFIEYANKQAMDEAIASMNLFDLGGQLLRVGRSITPPNALACPTTNSTMPTAAAVA
For orientation: stoichiometry N means a count of units in the complex or per binding partner. Regarding B4, the “stoichiometry N” value in series [2] was determined as 2.
